Laboratory results as given in article PMC6303191.

Key:
[1] = target: VRC01 UCA (human); test: SPR
[2] = target: VRC01 UCA; test: BLI; details: read at the end of association (300 s), read off a plot

Chain of VRC01 UCA (human) (heavy, as listed by the source, chain 1 of 2): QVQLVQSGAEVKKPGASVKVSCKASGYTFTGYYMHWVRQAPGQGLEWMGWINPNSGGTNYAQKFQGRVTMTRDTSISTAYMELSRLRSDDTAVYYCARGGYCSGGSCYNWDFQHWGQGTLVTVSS
Chain of VRC01 UCA (human) (light, as listed by the source, chain 2 of 2): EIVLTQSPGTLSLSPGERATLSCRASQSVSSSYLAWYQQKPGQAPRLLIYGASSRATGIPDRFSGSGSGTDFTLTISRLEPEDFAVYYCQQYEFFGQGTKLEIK

Substance: BG505 SOSIP v4.1-GT1 trimer (from UniProt Q2N0S6 1-860) (complex)
- Kd [1]: 3000 nM
- koff [1]: 0.018 s⁻¹
- kon [1]: 8000 M⁻¹ s⁻¹

Substance: TM4ΔV1-3 (24-mer) D268R; E370A
- response ([2]; VRC01 UCA IgG x 24-mer, parent: est. 0.68): 0 nm

Substance: TM4ΔV1-3 (heptamer) D368R; E370A
- response ([2]; VRC01 UCA IgG x heptamer, parent: est. 0.43): 0 nm

Substance: TM4ΔV1-3 (monomer) (domain or fragment)
- Kd [1]: > 100000 nM
